The values that follow come from patent CN105713087A (BEIJING HEALTH GUARDS BIOTECHNOLOGY CO LTD, dated 2016).

One experiment addresses T1, HPV6 VLP (human papillomavirus type 6, UniProt P69899 1-500).
T1 sequence: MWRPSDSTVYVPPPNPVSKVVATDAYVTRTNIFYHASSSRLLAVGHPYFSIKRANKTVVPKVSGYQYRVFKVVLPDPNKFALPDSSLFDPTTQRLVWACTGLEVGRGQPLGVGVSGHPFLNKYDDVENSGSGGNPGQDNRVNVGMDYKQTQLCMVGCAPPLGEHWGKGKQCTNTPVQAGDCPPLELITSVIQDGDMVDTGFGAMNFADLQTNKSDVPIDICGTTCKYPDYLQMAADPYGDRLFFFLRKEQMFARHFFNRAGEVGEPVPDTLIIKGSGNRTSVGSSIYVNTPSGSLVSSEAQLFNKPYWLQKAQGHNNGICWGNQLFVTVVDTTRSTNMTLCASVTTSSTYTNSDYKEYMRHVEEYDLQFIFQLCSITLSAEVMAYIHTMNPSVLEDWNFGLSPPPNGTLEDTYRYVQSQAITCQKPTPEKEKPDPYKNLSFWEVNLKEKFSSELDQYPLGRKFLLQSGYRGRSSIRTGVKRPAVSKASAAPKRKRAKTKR
As to the kind of experiment: SPR (BIACORE 3000).

The target of a further experiment is T2, HPV11 VLP (human papillomavirus type 11, UniProt P04012 1-501).
T2 sequence: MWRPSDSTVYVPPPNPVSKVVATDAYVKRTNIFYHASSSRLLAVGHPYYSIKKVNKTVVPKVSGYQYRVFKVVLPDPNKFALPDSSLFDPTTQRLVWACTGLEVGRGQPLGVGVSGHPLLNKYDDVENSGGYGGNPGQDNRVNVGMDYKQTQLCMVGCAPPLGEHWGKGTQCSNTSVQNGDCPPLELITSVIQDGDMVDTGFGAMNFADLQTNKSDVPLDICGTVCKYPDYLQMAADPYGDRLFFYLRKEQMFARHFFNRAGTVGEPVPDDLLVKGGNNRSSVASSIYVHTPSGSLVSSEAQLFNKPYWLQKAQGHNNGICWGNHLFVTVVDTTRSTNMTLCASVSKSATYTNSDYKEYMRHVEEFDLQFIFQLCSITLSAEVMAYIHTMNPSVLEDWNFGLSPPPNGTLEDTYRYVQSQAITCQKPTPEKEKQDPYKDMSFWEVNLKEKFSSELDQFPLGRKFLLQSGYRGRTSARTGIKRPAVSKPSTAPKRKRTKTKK
As to the kind of experiment: SPR (BIACORE 3000). (In general: Surface plasmon resonance follows binding to a sensor surface in real time, without labels.)

Another experiment addresses T3, HPV31 VLP (human papillomavirus type 31, UniProt P17388 1-504).
T3 sequence: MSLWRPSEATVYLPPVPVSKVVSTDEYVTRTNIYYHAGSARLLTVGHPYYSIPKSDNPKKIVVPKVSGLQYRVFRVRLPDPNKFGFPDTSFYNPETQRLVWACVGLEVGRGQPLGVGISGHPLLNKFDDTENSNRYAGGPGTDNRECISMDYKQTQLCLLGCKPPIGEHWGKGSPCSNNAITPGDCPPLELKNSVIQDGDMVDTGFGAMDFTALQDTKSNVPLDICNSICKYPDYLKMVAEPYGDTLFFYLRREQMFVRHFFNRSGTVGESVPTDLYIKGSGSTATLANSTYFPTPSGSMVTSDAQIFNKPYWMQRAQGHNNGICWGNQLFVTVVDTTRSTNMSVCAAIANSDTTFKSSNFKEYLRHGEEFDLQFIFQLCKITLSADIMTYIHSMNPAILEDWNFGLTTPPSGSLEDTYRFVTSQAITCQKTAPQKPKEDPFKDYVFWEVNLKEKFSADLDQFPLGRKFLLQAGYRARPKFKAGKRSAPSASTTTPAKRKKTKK
As to the kind of experiment: SPR (BIACORE 3000).

The target in a further experiment is T4, HPV45 VLP (human papillomavirus type 45, UniProt P36741 27-539).
T4 sequence: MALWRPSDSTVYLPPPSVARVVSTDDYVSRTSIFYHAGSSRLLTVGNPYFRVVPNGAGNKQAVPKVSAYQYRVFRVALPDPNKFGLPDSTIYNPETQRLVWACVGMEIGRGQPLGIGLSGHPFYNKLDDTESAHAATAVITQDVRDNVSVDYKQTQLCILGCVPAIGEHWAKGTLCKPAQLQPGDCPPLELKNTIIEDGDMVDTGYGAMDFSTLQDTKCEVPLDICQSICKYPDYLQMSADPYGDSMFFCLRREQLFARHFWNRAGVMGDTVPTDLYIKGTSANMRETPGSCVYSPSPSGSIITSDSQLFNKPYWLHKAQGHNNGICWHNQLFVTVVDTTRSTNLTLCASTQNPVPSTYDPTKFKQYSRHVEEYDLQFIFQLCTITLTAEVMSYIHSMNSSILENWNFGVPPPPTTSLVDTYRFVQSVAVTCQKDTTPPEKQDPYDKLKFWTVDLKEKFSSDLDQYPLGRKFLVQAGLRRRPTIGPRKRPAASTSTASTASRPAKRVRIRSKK
As to the kind of experiment: SPR (BIACORE 3000).

The target of a further experiment is T5, HPV-16 L1 VLP (human papillomavirus type 16, UniProt P03101 1-505).
T5 construct: also called HPV16VLP
T5 sequence: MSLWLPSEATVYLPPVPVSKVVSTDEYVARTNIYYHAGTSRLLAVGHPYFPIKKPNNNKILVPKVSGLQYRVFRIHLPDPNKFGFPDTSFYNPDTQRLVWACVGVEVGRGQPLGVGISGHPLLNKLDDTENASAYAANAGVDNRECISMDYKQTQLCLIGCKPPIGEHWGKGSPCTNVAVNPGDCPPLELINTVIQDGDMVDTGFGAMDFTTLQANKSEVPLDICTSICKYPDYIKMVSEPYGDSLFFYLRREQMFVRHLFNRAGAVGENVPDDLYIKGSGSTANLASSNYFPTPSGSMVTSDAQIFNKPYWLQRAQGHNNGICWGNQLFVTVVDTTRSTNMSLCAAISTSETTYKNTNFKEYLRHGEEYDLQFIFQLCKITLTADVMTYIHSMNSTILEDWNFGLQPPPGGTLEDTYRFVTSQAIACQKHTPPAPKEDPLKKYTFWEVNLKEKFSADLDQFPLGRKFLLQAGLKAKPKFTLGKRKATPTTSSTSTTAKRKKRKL
As to the kind of experiment: indirect ELISA on coated VLP. For orientation: In an ELISA, binding on a coated surface is turned into a signal by an enzyme label.

The target of the next experiment is T6, HPV-18 L1 VLP (human papillomavirus type 18, UniProt P06794 62-568).
T6 construct: also called HPV18VLP
T6 sequence: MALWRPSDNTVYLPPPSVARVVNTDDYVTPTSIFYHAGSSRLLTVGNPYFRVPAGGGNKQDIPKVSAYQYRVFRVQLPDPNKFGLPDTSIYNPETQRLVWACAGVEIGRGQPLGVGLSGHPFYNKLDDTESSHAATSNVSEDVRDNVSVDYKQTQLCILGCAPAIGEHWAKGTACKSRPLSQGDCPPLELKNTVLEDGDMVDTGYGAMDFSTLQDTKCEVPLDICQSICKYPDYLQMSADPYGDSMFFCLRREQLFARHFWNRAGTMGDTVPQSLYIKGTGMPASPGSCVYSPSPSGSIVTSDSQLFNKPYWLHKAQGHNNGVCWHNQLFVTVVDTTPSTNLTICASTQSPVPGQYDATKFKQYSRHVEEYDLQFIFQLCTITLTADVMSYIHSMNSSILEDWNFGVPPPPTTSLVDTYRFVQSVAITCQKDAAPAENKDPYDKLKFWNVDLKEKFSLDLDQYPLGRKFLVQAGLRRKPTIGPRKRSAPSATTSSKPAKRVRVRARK
As to the kind of experiment: indirect ELISA on coated VLP.

B1: 单克隆抗体2F7 (杂交瘤细胞株2F7, CGMCC No.11295) (antibody, V domains shown)
VH: VQLQQSGPGLVQPSQSLSITCTVSGFSLTSYGVHWVRQSPGKGLEWLGVIWSGGSTDYNAAFISRLSISKDNSKSQVFFKMNSLQANDTAIYYCARRDGNSRYAMDYWGQGTTVTVSS
VL: DIQLTQSPSSMSASLGDRITITCQATQDIVKNLNWYQQKPGKPPSFLIYYATELAEGVPSRFSGSGSGSDYSLTISNLESEDFADYYCLQFYEFPLTFGAGTKLEI
notes: also called 克隆2F7
For B1, the binding result was “no binding (tested: 20nmol/L)” with HPV6 VLP; “no binding (tested: 20nmol/L)” with HPV11 VLP; “no binding (tested: 20nmol/L)” with HPV31 VLP; “no binding (tested: 20nmol/L)” with HPV45 VLP; “no binding (tested: 0.3μg/ml)” in the experiment with HPV-16 L1 VLP; “no binding (tested: 0.3μg/ml)” with HPV-18 L1 VLP.
